We go through 2 molecules from US6703489 (YALE UNIVERSITY, dated 2004).

B1: Drosophila Serrate, full-length (expression construct Ser-mtn), expressed on Drosophila S2 cells (ligand)
chain: GNFELEILEISNTNSHLLNGYCCGMPAELRATKTIGCSPCTTAFRLCLKEYQTTEQGASISTGCSFGNATTKILGGSSFVLSDPGVGAIVLPFTFRWTKSFTLILQALDMYNTSYPDAERLIEETSYSGVILPSPEWKTLDHIGRNARITYRVRVQCAVTYYNTTCTTFCRPRDDQFGHYACGSEGQKLCLNGWQGVNCEEAICKAGCDPVHGKCDRPGECECRPGWRGPLCNECMVYPGCKHGSCNGSAWKCVCDTNWGGILCDQDLNFCGTHEPCKHGGTCENTAPDKYRCTCAEGLSGEQCEIVEHPCATRPCRNGGTCTLKTSNRTQAQVYRTSHGRSNMGRPVRRSSSMRSLDHLRPEGQALNGSSSSGLVSLGSLQLQQQLAPDFTCDCAAGWTGPTCEINIDECAGGPCEHGGTCIDLIGGFRCECPPEWHGDVCQVDVNECEAPHSAGIAANALLTTTATAIIGSNLSSTALLAALTSAVASTSLAIGPCINAKECRNQPGSFACICKEGWGGVTCAENLDDCVGQCRNGATCIDLVNDYRCACASGFTGRDCETDIDECATSPCRNGGECVDMVGKFNCICPLGYSGSLCEEAKENCTPSPCLEGHCLNTPEGYYCHCPPDRAGKHCEQLRPLCSQPPCNEGCFANVSLATSATTTTTTTTTATTTRKMAKPSGLPCSGHGSCEMSDVGTFCKCHVGHTGTFCEHNLNECSPNPCRNGGICLDGDGDFTCECMSGWTGKRCSERATGCYAGQCQNGGTCMPGAPDKALQPHCRCAPGWTGLFCAEAIDQCRGQPCHNGGTCESGAGWFRCVCAQGFSGPDCRINVNECSPQPCQGGATCIDGIGGYSCICPPGRHGLRCEILLSDPKSACQNASNTISPYTALNRSQNWLDIALTGRTEDDENCNACVCENGTSRCTNLWCGLPNCYKVDPLSKSSNLSGVCKQHEVCVPALSETCLSSPCNVRGDCRALEPSRRVAPPRLPAKSSCWPNQAVVNENCARLTILLALERVGKGASVEGLCSLVRVLLAAQLIKKPASTFGQDPGMLMVLCDLKTGTNDTVELTVSSSKLNDPQLPVAVGLLGELLSSRQLNGIQRRKELELQHAKLAALTSIVEVKLETARVADGSGHSLLIGVLCGVFIVLVGFSVFISLYWKQRLAYRTSSGMNLTPSLDALRHEEEKSNNLQNEENLRRYTNPLKGSTSSLRAATGMELSLNPAPELAASAASSSALHRSQPLFPPCDFERELDSSTGLKQAHKRSSQILLHKTQNSDMRKNTVGSLDSPRKDFGKRSINCKSMPPSSGDEGSDVLATTVMV
notes: also called full-length Serrate
B2: Drosophila Delta, expressed on cells (ligand, Drosophila melanogaster, UniProt P10041 19-833, looked up)
chain: QVHSSGSFELRLKYFSNDHGRDNEGRCCSGESDGATGKCLGSCKTRFRVCLKHYQATIDTTSQCTYGDVITPILGENSVNLTDAQRFQNKGFTNPIQFPFSFSWPGTFSLIVEAWHDTNNSGNARTNKLLIQRLLVQQVLEVSSEWKTNKSESQYTSLEYDFRVTCDLNYYGSGCAKFCRPRDDSFGHSTCSETGEIICLTGWQGDYCHIPKCAKGCEHGHCDKPNQCVCQLGWKGALCNECVLEPNCIHGTCNKPWTCICNEGWGGLYCNQDLNYCTNHRPCKNGGTCFNTGEGLYTCKCAPGYSGDDCENEIYSCDADVNPCQNGGTCIDEPHTKTGYKCHCANGWSGKMCEEKVLTCSDKPCHQGICRNVRPGLGSKGQGYQCECPIGYSGPNCDLQLDNCSPNPCINGGSCQPSGKCICPAGFSGTRCETNIDDCLGHQCENGGTCIDMVNQYRCQCVPGFHGTHCSSKVDLCLIRPCANGGTCLNLNNDYQCTCRAGFTGKDCSVDIDECSSGPCHNGGTCMNRVNSFECVCANGFRGKQCDEESYDSVTFDAHQYGATTQARADGLTNAQVVLIAVFSVAMPLVAVIAACVVFCMKRKRKRAQEKDDAEARKQNEQNAVATMHHNGSGVGVALASASLGGKTGSNSGLTFDGGNPNIIKNTWDKSVNNICASAAAAAAAAAAADECLMYGGYVASVADNNNANSDFCVAPLQRAKSQKQLNTDPTLMHRGSPAGSSAKGASGGGPGAAEGKRISVLGEGSYCSQRWPSLAAAGVAGACSSQLMAAASVAGSGAGTAQQQRSVVCGTPHM
notes: whole, on cells; That entry appears to be only part of Delta, so it was not used for the whole protein on cells; also called Delta expressing cells

Data set [1] deals with the molecule itself. Put plainly: cell aggregation assay, S2 cells.
The target in data set [2] is B1. Nature of the data set: cell aggregation assay, S2 cells.

For the molecule B1, the binding result in data set [1] is reported as “no binding”.
With B2, in data set [2], the binding result is given as “no binding”.
